Results: publication PMC11585616 (2024)
Read-outs that look alike come from different tables or passages of the source.

Key:
Assay in all cases: ITC
[1] = target: HiSiaP (Haemophilus influenzae, UniProt P44542 24-329)
[2] = target: T1, VcSiaP (Vibrio cholerae, UniProt Q9KR64 23-321)
[3] = target: T1, VcSiaP; remark: listed apart in the source

T1 sequence (Q9KR64 23-321): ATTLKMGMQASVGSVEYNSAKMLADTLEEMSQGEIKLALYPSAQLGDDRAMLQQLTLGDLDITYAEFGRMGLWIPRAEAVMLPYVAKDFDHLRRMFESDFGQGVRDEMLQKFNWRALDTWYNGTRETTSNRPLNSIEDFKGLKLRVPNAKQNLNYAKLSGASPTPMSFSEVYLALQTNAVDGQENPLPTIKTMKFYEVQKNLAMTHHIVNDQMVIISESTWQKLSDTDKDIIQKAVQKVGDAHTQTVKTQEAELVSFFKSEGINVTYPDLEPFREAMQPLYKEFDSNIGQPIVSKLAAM
HiSiaP, sequence (P44542 24-329): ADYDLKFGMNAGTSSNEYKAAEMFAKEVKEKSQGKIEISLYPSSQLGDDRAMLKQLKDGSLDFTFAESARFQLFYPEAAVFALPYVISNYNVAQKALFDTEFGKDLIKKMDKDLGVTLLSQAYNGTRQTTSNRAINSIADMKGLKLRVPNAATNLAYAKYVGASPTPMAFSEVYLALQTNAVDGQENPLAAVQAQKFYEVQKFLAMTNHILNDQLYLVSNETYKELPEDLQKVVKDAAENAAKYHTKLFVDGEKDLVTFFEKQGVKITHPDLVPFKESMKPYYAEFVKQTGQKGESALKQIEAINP

B1: VHHVcP #2 (VHH)
VHH: QVQLVESGGRLVQTGGSLRLSCAASGDTFSNYVMGWFRQAPGKEREFVAAISWTGANSYYADSVAGRFTISRDNAKNTVALQMNSLKPEDTAIYYCAADHFHVTHRKYDYWGQGTQVTVSS
Kd [1]: 10700 nM
Kd [2]: 5.61 nM
Kd [3]: 1.97 nM
